One block for each binder: values may come before it. No end group written: not given here.
Legend:
[1] = molecular target: T1, 32P-Bcl-2Δc21/his6/HMK (human, UniProt P10415 1-218, 32P-labelled with heart muscle kinase and 32P-gamma-ATP at the C-terminal HMK recognition sequence (arg-arg-ala-ser)); test: Far Western blot of purified GST fusion proteins
T1 construct: range 1-218; Expressed in E. coli from the pTrchis vector; a soluble mixture of monomers and dimers at pH 7.4; also called 32P-labelled Bcl-2 cytosolic domain probe
T1 sequence (P10415 other isoform, or with tags, fused parts or gaps mutant limits assumed): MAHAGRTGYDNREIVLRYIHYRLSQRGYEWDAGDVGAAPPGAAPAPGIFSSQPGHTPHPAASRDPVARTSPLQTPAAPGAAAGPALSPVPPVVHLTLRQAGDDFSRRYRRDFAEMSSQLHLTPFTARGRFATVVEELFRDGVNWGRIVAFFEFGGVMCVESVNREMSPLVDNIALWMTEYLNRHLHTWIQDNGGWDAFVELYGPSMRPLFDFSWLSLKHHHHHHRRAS

[2] = molecular target: T2, Bax (transfected, 293T cells) (UniProt Q07812 1-192, limits assumed); test: anti-Flag co-immunoprecipitation, anti-Bax Western blot
T2 construct: Detected with rabbit anti-Bax sc-526; also called the pro-apoptotic member of the Bcl-2 family
T2 sequence (Q07812 whole entry): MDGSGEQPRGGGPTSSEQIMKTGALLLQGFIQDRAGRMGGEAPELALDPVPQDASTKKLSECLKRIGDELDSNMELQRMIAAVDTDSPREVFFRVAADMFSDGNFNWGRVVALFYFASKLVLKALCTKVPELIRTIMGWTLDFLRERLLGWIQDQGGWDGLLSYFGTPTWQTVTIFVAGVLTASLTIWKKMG
Method: After centrifugation at 11,000 g, the supernatant was incubated with 50 µl of a 1:1 slurry of protein G Sepharose for 1 hour at 4° C. The Sepharose was removed and the supernatant incubated with mouse M2 anti-Flag antibody (IBI-A Kodak Co., New Haven, Conn.) at 4° C. for 6–8 hours, at which time 20 µl of a 1:1 slurry of proteinG Sepharose was added. After 1 hour at 4° C., the beads were recovered, washed, and boiled in SDS sample buffer. Following SDS PAGE and transfer to nitrocellulose, blots were developed with either mouse anti-Myc 9E1D antibody or mouse anti-HA 12CA5 antibody (both from Babco, Berkeley, Calif.) or rabbit anti-Bax sc-526 antibody (commercially available from Santa Cruz Biotech., Inc., Santa Cruz, Calif.).

[3] = molecular target: T3, 35S-labelled transcription-translation product of p28 Bap31 cDNA
T3 chain: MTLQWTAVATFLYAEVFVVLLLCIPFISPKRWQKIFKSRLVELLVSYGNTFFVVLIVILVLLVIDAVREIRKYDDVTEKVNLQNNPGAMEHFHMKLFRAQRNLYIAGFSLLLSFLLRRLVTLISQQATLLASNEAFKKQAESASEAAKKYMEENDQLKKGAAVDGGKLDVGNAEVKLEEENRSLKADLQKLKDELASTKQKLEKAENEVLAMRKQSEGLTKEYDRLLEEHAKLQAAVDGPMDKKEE

[4] = molecular target: T1, 32P-Bcl-2Δc21/his6/HMK; test: Far Western blot of reverse phase HPLC fractions (FIG. 2B)
Method: Aliquots of fractions eluted from the gel were assayed by ^32P-Bcl-2Δc21/his6/HMK Far Western blotting analysis, and the radioactive bands corresponding to p20 and p21 Bax were detected and quantified by Phosphorimager. The levels relative to the maximal signal detected (set at 100) were plotted as a bar graph (upper panel). […] The positions of molecular mass marker proteins are indicated. The black bars on the graph indicate p20. The white stippled bars on the graph indicate p21 Bax. Figure 2B: FIG. 2B is a reverse phase HPLC analysis ($A280$ profile; upper panel) and corresponding graph (lower panel) showing proteins eluted between 190 and 220 ml from the preparative SDS PAGE of FIG. 2A. Equal aliquots from all fractions were assayed for ^32P-Bcl-2Δc21/his6/HMK interacting protein by Far Western blotting analysis, for which only p20 was detected. Amounts relative to the maximal signal detected (set at 100) were plotted as a bar graph (lower panel). […]
Identification of the p20 Bcl-2-binding polypeptide was obtained by NH_2-terminal peptide sequence analysis of p20 following its isolation by a combination of differential solubilization in detergent, preparative SDS PAGE, and reverse phase HPLC (FIGS. 2A and 2B). […] One candidate sequence emerged, and was the only sequence that was detected in the peak fraction of Bcl-2 binding activity (fraction 54, FIG. 2B).

binding result [2]: no binding
B2: Flag-tagged p28 Bap31 (other)
chain: MTLQWTAVATFLYAEVFVVLLLCIPFISPKRWQKIFKSRLVELLVSYGNTFFVVLIVILVLLVIDAVREIRKYDDVTEKVNLQNNPGAMEHFHMKLFRAQRNLYIAGFSLLLSFLLRRLVTLISQQATLLASNEAFKKQAESASEAAKKYMEENDQLKKGAAVDGGKLDVGNAEVKLEEENRSLKADLQKLKDELASTKQKLEKAENEVLAMRKQSEGLTKEYDRLLEEHAKLQAAVDGPMDYKDDDDKAMDKKEE

binding result [4]: binds
B4: p20 cleavage product of p28 Bap31 (other)
chain: MTLQWTAVATFLYAEVFVVLLLCIPFISPKRWQKIFKSRLVELLVSYGNTFFVVLIVILVLLVIDAVREIRKYDDVTEKVNLQNNPGAMEHFHMKLFRAQRNLYIAGFSLLLSFLLRRLVTLISQQATLLASNEAFKKQAESASEAAKKYMEENDQLKKGAAVD
notes: Endogenous product in apoptotic human KB cells, on SDS-PAGE blots; also called cleavage product "b"

binding result [1]: binds
B5: GST-p28 (1-164) (other)
chain: MTLQWTAVATFLYAEVFVVLLLCIPFISPKRWQKIFKSRLVELLVSYGNTFFVVLIVILVLLVIDAVREIRKYDDVTEKVNLQNNPGAMEHFHMKLFRAQRNLYIAGFSLLLSFLLRRLVTLISQQATLLASNEAFKKQAESASEAAKKYMEENDQLKKGAAVD
notes: Expressed in E. coli and purified on glutathione Sepharose; also called GST-p20; not shown: glutathione S-transferase encoded by pGEX-2T (Pharmacia)

binding result [1]: no binding
B7: GST-p28 (122-164) (other)
chain: LISQQATLLASNEAFKKQAESASEAAKKYMEENDQLKKGAAVD
modifications: also: GST fusion
notes: Expressed in E. coli and purified on glutathione Sepharose; not shown: glutathione S-transferase encoded by pGEX-2T (Pharmacia)

Further lines, the binder ahead of its results:

B1: GST-p28 (1-246) (other)
chain: MTLQWTAVATFLYAEVFVVLLLCIPFISPKRWQKIFKSRLVELLVSYGNTFFVVLIVILVLLVIDAVREIRKYDDVTEKVNLQNNPGAMEHFHMKLFRAQRNLYIAGFSLLLSFLLRRLVTLISQQATLLASNEAFKKQAESASEAAKKYMEENDQLKKGAAVDGGKLDVGNAEVKLEEENRSLKADLQKLKDELASTKQKLEKAENEVLAMRKQSEGLTKEYDRLLEEHAKLQAAVDGPMDKKEE
notes: Expressed in E. coli and purified on glutathione Sepharose; The thrombin-site linker of pGEX-2T is not described; also called GST-p28 Bap31; not shown: glutathione S-transferase encoded by pGEX-2T (Pharmacia)
binding result [1]: binds

B3: CPP32 (caspase-3) (protein)
chain: SGISLDNSYKMDYPEMGLCIIINNKNFHKSTGMTSRSGTDVDAANLRETFRNLKYEVRNKNDLTREEIVELMRDVSKEDHSKRSSFVCVLLSHGEEGIIFGTNGPVDLKKITNFFRGDRCRSLTGKPKLFIIQACRGTELDCGIETDSGVDDDMACHKIPVEADFLYAYSTAPGYYSWRNSKDGSWFIQSLCAMLKQYADKLEFMHILTRVNRKVATEFESFSFDATFHAKKQIPCIVSMLTKELYFYH
cleavage of 35S-labelled p28 Bap31 in vitro (SDS-PAGE) [3]: little reactivity was observed for caspase-3 over a wide range of enzyme concentration

B6: FLICE (caspase-8) (protein)
chain: SESQTLDKVYQMKSKPRGYCLIINNHNFAKAREKVPKLHSIRDRNGTHLDAGALTTTFEELHFEIKPHDDCTVEQIYEILKIYQLMDHSNMDCFICCILSHGDKGIIYGTDGQEAPIYELTSQFTGLKCPSLAGKPKVFFIQACQGDNYQKGIPVETDSEEQPYLEMDLSSPQTRYIPDEADFLLGMATVNNCVSYRNPAEGTWYIQSLCQSLRERCPRGDDILTILTEVNYEVSNKDDKKNMGKQMPQPTFTLRKKLVFPSD
p20 cleavage product quantitated on a Phosphorimager [3]: p28 Bap31 was more sensitive to cleavage by FLICE (caspase-8) than ICE (caspase-1)
